This note sets out measurements from article PMC5499739, “An RRM–ZnF RNA recognition module targets RBM10 to exonic sequences to promote exon exclusion”.

Series [1] deals with T1, RBM10 RRM1-ZnF (Homo sapiens) (UniProt P98175).
T1 sequence: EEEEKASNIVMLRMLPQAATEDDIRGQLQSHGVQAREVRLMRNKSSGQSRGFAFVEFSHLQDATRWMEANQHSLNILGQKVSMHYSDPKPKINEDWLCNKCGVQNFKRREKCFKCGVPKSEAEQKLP
The experiment in a line: pulldown. The following applies: 20 nM protein; 20 mM Hepes pH 7.8, 80 mM KCl, 20 mM NaCl, 10% glycerol, 2 mM DTT; 4 C.

Series [2] deals with T2, RBM10 RRM1-ZnF-RRM2 (Homo sapiens) (UniProt P98175).
T2 sequence: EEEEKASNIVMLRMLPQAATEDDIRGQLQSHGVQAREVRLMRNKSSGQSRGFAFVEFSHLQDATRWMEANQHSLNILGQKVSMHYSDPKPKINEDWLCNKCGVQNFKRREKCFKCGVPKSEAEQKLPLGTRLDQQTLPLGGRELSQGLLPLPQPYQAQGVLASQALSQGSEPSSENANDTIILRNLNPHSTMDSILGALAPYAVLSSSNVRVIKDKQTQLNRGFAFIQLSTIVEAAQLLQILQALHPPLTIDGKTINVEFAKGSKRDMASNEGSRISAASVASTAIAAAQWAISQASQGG
The experiment in a line: pulldown. The following applies: 20 nM protein; 20 mM Hepes pH 7.8, 80 mM KCl, 20 mM NaCl, 10% glycerol, 2 mM DTT; 4 C.

For series [3], the target named is T3, RBM10 RRM1-ZnF (Homo sapiens, UniProt P98175 129-242).
T3 sequence: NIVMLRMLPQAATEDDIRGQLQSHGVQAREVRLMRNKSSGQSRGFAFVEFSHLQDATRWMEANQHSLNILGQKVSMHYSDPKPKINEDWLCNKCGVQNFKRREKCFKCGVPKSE
The experiment in a line: ITC; 10 uM ZnCl2; 10 mM sodium phosphate pH 6.9, 50 mM NaCl, 1 mM TCEP (+10 uM ZnCl2 for ZnF constructs); ITC 25 C; NMR 298 or 310 K. The settings on record: protein: recombinant; tags: His6 or His6-SUMO3, cleaved with HRV 3C. (In general: Isothermal titration calorimetry measures the heat released or taken up as one component is titrated into another.)

For another series, the target named is T4, RBM10 RRM2 (Homo sapiens, UniProt P98175 300-384).
T4 sequence: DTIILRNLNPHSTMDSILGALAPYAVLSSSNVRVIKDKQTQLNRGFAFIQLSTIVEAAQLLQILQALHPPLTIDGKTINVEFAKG
The experiment in a line: ITC; 10 mM sodium phosphate pH 6.9, 50 mM NaCl, 1 mM TCEP (+10 uM ZnCl2 for ZnF constructs); ITC 25 C; NMR 298 or 310 K. The following applies: protein: recombinant; tags: His6 or His6-SUMO3, cleaved with HRV 3C.

Series [4] has as its target T3, RBM10 RRM1-ZnF. Nature of the series: ITC; 10 uM ZnCl2; 10 mM sodium phosphate pH 6.9, 50 mM NaCl, 1 mM TCEP (+10 uM ZnCl2 for ZnF constructs); ITC 25 C; NMR 298 or 310 K. The settings on record: protein: recombinant; tags: His6 or His6-SUMO3, cleaved with HRV 3C. The source holds these as a separate data set.
The target in another series is T5, RBM10 RRM1-ZnF-RRM2 (Homo sapiens, UniProt P98175 129-384).
T5 sequence: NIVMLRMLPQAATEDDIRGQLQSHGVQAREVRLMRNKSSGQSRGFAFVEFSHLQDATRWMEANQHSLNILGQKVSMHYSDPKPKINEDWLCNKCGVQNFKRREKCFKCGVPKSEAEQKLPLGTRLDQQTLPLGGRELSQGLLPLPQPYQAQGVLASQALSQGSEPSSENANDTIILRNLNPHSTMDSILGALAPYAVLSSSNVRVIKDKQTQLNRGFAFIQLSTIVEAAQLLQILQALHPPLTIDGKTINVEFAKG
Nature of the series: NMR; 10 uM ZnCl2; RRM1-ZnF slow exchange, Kd in nM range; RRM2 second weak event, Kd in uM range; 10 mM sodium phosphate pH 6.9, 50 mM NaCl, 1 mM TCEP (+10 uM ZnCl2 for ZnF constructs); ITC 25 C; NMR 298 or 310 K. The following applies: protein: recombinant; tags: His6 or His6-SUMO3, cleaved with HRV 3C.

Series [5] deals with T3, RBM10 RRM1-ZnF. The experiment in a line: ITC; 10 uM ZnCl2; 10 mM sodium phosphate pH 6.9, 50 mM NaCl, 1 mM TCEP (+10 uM ZnCl2 for ZnF constructs); ITC 25 C; NMR 298 or 310 K. The following applies: protein: recombinant; tags: His6 or His6-SUMO3, cleaved with HRV 3C. This is another data set of the same source.

Molecule AAAGGGU [7-mer AAAGGGU] returned a binding signal (RNAcompete z-score) in series [1] of 5.

In series [1], GGUUGGG [7-mer GGUUGGG] displayed a binding signal (RNAcompete z-score) of 5.27.

Consider GAAAGGG [7-mer GAAAGGG], for which the values for the binding signal (RNAcompete z-score) in series [1] and in series [2] were 6.04 and 5.54, respectively.

In the case of GGUGGGG [7-mer GGUGGGG], the binding signal (RNAcompete z-score) in series [1] came to 5.21.

For GAAAGGA [7-mer GAAAGGA], the results for the binding signal (RNAcompete z-score) in series [1] and in series [2] were 5.87 and 5.67, respectively.

Turning to GAAGGGG [7-mer GAAGGGG], the binding signal (RNAcompete z-score) was found to be 5.25 in series [1] and 4.83 in series [2].

With GGUAGGG [7-mer GGUAGGG], the binding signal (RNAcompete z-score) in series [2] turned out to be 4.79.

Take GAAAUGG [7-mer GAAAUGG]: the binding signal (RNAcompete z-score) in series [1] is 5.03; in series [2] it was 4.79.

On to GAGUGGG [7-mer GAGUGGG], for which the binding signal (RNAcompete z-score) in series [1] was found to be 4.99; in series [2], 4.9.

For GGAUGGG [7-mer GGAUGGG], the binding signal (RNAcompete z-score) in series [1] was determined as 5.66; in series [2], 4.83.

With GGAAAGG [7-mer GGAAAGG], the binding signal (RNAcompete z-score) in series [1] came out at 6.53; in series [2], 6.43.

With GGUAAGG [7-mer GGUAAGG], the binding signal (RNAcompete z-score) in series [1] was determined as 4.97; in series [2], 4.92.

Regarding GGGAUGG [7-mer GGGAUGG], the values for the binding signal (RNAcompete z-score) in series [1] and in series [2] were 5.71 and 5.12, respectively.

Turning to AAGGGUG [7-mer AAGGGUG], the binding signal (RNAcompete z-score) in series [1] stood at 5.25; in series [2], 5.29.

Turning to GGAAGGG [7-mer GGAAGGG], the results for the binding signal (RNAcompete z-score) in series [1] and in series [2] were 6 and 5.56, respectively.

For GGGAAGG [7-mer GGGAAGG], the values for the binding signal (RNAcompete z-score) in series [1] and in series [2] were 5.91 and 5.54, respectively.

AGUAGGG [7-mer AGUAGGG] gave a binding signal (RNAcompete z-score) in series [2] of 4.88.

For AGGGAAA [7-mer AGGGAAA], the binding signal (RNAcompete z-score) in series [2] turned out to be 4.87.

Take CUAUGGA (ssRNA): the binding signal in the series with RBM10 RRM1-ZnF [3] was ~5 fold decrease in affinity vs CUGUGGA.

Take CAGUGGA (ssRNA): the binding signal with RBM10 RRM1-ZnF [3] is < 2 fold decrease in affinity vs CUGUGGA.

On to CUGAGGA (ssRNA), for which the binding signal with RBM10 RRM1-ZnF [3] is < 2 fold decrease in affinity vs CUGUGGA.

In the case of UAAUA (ssRNA), in the series with RBM10 RRM2, the binding result is given as “no binding”.

As for UGUGGA (ssRNA), the binding signal in the series with RBM10 RRM1-ZnF [3] was ~2 fold decrease in affinity vs CUGUGGA.

The term Kd denotes the concentration at which binding is half-saturated. On to CCCAC (ssRNA), for which the Kd with RBM10 RRM2 was approximately 7 µM.

For the molecule CUGUGGA (ssRNA), the binding result with RBM10 RRM1-ZnF [4] and with RBM10 RRM1-ZnF-RRM2 was “binds” in each case.

In the case of CUGUGGU (ssRNA), the binding signal with RBM10 RRM1-ZnF [5] was ~3 fold decrease in affinity vs CUGUGGA.
